Data published in the supplement of paper PMC10567573.

B1: TNXB (parent)
chain: LLQRELMVPGTRHSAVLRDLRSGT

Variants of: B1
Test: protein stability index of a GFP-peptide fusion (GPS, HEK-293T) (PSI 1-6); higher = more stable
Conditions: c terminus: a fixed tail appended
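Further: lentivirally expressed fusions sorted by FACS into six bins by GFP to DsRed ratio, PSI derived from sequencing read proportions per bin multiplied by bin number.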

Variant	protein stability index
S14C	2.03
S14D	2.66
S14E	2.54
S14F	2.32
S14G	2.63
S14H	2.26
S14I	1.75
S14K	2.67
S14L	1.61
S14M	2.23
S14N	2.88
S14P	2.32
S14Q	2.85
S14R	2.45
S14T	2.45
S14V	2.22
S14W	2.11
S14Y	2.71
A15C	1.72
A15D	2.29
A15E	2.92
A15F	1.98
A15G	2.34
A15H	2.41

Variant	protein stability index
A15I	2.26
A15K	2.82
A15L	2.14
A15M	2.43
A15N	3.19
A15P	2.35
A15Q	1.97
A15R	3.4
A15S	2.27
A15T	2.18
A15V	1.95
A15W	3.49
A15Y	1.62
V16A	3.05
V16C	2.02
V16D	3.19
V16E	2.72
V16F	1.71
V16H	2.46
V16I	2.11
V16K	2.48
V16L	2.33
V16M	2.15
V16N	3

Variant	protein stability index
V16P	2.82
V16Q	2.68
V16R	2.52
V16S	2.27
V16T	2.7
V16W	2.06
V16Y	3.05
L17A	2.55
L17C	2.54
L17D	2.62
L17E	3.47
L17F	2.23
L17G	2.84
L17H	2.28
L17I	2.81
L17K	3.75
L17M	3.05
L17N	2.96
L17P	2.97
L17Q	3.32
L17R	3.46
L17S	3.16
L17T	2.73
L17V	2.85

Variant	protein stability index
L17W	2.38
L17Y	2.45
R18A	2.68
R18C	2.42
R18D	2.83
R18E	3.33
R18F	2.02
R18G	2.44
R18H	2.86
R18I	2.21
R18K	2.39
R18L	1.94
R18M	2.12
R18N	2.71
R18P	2.75
R18Q	2.48
R18S	2.61
R18T	2.43
R18V	2.51
R18W	1.8
R18Y	2.07
D19A	2.27
D19C	1.49
D19E	2.78

Variant	protein stability index
D19F	2.18
D19G	2.31
D19H	2.26
D19I	1.71
D19K	2.07
D19L	1.75
D19M	2.39
D19N	2.06
D19P	2.69
D19Q	2.29
D19R	1.69
D19S	2.31
D19T	2.46
D19V	1.71
D19W	1.73
D19Y	2.23
L20A	2.97
L20C	2.85
L20D	3.65
L20E	3.37
L20F	1.92
L20G	3.37
L20H	2.7
L20I	2.52

Variant	protein stability index
L20K	3.02
L20M	2.25
L20N	3.53
L20P	2.53
L20Q	2.89
L20R	2.86
L20S	3.38
L20T	2.66
L20V	2.63
L20W	2.3
L20Y	2.27
R21A	2.73
R21C	2.06
R21D	2.69
R21E	2.58
R21F	1.95
R21G	2.43
R21H	3.21
R21I	2.13
R21K	3.03
R21L	1.99
R21M	1.99
R21N	2.34
R21P	2.85

Variant	protein stability index
R21Q	2.01
R21S	2.06
R21T	2.18
R21V	1.88
R21W	2.75
R21Y	2.12
S22A	2.32
S22C	2
S22D	2.96
S22E	2.41
S22F	1.58
S22G	2.12
S22H	2.2
S22I	2.5
S22K	2.77
S22L	2.04
S22M	2.19
S22N	2.09
S22P	2.43
S22Q	3.04
S22R	2.78
S22T	2.39
S22V	1.82
